According to patent US20160237095A1 (KADMON, published 2016):
Where a chain is given by its changes, count along the chain named. One block for each binder: values may come before it.

Experiments:
murine VEGFR2 [1] = target: T1, murine VEGFR2 (murine, UniProt P35918 20-762, limits assumed); assay: ELISA, binding to mVEGFR2 (right panel); detected with a different secondary antibody
T1 construct: Antigen in the ELISA and Biacore assays; also called mVEGFR2; mouse VEGFR2

murine VEGFR2 [2] = target: T1, murine VEGFR2; assay: blocking ELISA, mVEGF binding to mVEGFR2 (right panel) [continued) B]
rat VEGFR2 = target: T2, rat VEGFR2 (rat, UniProt O08775 20-760, limits assumed); assay: Biacore
T2 construct: Antigen in the Biacore assay
T2 sequence (O08775 20-760 limits assumed): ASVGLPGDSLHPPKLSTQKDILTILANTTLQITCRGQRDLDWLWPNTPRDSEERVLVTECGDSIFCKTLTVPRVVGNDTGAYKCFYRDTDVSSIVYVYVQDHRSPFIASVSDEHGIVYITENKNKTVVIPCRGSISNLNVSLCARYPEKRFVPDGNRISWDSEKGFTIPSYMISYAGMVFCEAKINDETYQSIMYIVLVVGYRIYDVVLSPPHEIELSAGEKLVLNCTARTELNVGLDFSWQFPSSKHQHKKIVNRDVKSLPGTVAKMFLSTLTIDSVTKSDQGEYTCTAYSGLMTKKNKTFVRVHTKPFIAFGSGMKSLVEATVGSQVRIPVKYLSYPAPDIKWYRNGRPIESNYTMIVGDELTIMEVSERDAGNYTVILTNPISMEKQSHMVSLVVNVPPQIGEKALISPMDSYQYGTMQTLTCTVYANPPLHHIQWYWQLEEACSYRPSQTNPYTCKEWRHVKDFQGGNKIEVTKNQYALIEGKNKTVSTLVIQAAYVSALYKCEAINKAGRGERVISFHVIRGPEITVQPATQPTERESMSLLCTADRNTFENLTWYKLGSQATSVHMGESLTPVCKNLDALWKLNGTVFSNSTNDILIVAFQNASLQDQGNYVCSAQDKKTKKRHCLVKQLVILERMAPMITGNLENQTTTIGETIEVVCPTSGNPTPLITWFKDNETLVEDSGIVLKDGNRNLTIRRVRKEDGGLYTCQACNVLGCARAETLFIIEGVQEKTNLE

murine VEGFR2 [3] = target: T1, murine VEGFR2; assay: Biacore
human VEGFR2 [4] = target: T3, human VEGFR2 (human, UniProt P35968 20-764, limits assumed); assay: Biacore
T3 construct: Antigen in the ELISA and Biacore assays; also called hVEGFR2; KDR
T3 sequence (P35968 20-764 limits assumed): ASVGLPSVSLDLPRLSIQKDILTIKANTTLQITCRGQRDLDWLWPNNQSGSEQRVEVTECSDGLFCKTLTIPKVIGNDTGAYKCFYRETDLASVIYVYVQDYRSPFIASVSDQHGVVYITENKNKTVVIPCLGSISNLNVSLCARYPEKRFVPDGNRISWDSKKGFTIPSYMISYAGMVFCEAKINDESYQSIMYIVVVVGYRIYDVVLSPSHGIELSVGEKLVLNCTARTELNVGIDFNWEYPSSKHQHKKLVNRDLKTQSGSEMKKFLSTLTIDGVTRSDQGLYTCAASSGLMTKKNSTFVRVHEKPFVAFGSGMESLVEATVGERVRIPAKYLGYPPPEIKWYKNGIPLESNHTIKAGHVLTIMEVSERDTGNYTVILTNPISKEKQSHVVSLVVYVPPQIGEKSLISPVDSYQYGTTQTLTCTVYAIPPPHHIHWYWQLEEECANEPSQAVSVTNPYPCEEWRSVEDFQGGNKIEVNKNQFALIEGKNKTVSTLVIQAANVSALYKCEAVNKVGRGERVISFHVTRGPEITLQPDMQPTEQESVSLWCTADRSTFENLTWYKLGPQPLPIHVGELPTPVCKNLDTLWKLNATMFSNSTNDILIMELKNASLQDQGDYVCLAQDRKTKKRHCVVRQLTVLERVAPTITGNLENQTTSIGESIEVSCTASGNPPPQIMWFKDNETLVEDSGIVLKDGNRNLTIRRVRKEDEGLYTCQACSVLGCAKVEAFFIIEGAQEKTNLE

human VEGFR2 [5] = target: T3, human VEGFR2; assay: ELISA, binding to hVEGFR2 (left panel)
[6] = target: T4, human VEGFR2 expressed on HUVEC and on KDR-PAE cells (human, UniProt P35968 20-1356); assay: cell binding (MFI), KDR-PAE cells
T4 construct: whole, on cells; also called hVEGFR2; hVEGR2
T4 sequence (P35968 20-1356): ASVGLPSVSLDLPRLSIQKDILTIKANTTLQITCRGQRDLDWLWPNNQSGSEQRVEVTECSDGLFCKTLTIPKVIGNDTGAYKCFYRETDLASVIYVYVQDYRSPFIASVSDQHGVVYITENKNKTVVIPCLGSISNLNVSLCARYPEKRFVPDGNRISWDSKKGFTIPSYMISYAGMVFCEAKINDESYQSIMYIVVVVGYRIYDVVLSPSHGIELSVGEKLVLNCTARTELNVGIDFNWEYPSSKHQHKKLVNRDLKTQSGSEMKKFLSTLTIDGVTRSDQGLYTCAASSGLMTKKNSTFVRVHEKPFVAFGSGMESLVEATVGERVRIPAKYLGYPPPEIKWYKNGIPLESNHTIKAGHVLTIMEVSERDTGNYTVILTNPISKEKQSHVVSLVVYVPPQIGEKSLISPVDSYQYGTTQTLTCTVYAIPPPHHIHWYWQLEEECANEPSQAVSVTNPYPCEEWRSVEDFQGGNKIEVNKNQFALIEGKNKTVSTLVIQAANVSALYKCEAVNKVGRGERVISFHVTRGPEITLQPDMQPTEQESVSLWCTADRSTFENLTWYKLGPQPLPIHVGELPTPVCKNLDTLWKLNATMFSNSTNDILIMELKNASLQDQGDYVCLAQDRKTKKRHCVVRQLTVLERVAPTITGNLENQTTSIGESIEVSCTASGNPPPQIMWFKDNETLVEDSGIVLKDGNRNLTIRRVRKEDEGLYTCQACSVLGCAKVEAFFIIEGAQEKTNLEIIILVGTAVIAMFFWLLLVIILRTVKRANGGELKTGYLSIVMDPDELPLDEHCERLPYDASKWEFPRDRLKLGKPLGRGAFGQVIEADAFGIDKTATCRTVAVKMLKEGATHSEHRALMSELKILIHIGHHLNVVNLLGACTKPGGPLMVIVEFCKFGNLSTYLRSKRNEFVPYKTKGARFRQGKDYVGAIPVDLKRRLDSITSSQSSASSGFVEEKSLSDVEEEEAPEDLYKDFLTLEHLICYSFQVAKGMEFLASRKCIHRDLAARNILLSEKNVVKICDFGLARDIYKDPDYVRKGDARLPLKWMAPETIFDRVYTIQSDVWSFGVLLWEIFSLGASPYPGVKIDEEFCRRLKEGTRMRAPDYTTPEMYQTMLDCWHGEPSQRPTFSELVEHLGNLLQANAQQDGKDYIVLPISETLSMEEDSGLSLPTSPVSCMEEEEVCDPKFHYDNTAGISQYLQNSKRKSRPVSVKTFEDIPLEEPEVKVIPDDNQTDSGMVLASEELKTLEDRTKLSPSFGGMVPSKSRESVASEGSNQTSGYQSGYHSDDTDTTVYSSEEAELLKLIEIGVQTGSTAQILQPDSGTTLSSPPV

murine VEGFR2 [7] = target: T1, murine VEGFR2; assay: ELISA, binding to mVEGFR2 (right panel)
human VEGFR2 [8] = target: T3, human VEGFR2; assay: blocking ELISA, hVEGF binding to hVEGFR2 (left panel) [continued) B]

T1 sequence (P35918 20-762 limits assumed): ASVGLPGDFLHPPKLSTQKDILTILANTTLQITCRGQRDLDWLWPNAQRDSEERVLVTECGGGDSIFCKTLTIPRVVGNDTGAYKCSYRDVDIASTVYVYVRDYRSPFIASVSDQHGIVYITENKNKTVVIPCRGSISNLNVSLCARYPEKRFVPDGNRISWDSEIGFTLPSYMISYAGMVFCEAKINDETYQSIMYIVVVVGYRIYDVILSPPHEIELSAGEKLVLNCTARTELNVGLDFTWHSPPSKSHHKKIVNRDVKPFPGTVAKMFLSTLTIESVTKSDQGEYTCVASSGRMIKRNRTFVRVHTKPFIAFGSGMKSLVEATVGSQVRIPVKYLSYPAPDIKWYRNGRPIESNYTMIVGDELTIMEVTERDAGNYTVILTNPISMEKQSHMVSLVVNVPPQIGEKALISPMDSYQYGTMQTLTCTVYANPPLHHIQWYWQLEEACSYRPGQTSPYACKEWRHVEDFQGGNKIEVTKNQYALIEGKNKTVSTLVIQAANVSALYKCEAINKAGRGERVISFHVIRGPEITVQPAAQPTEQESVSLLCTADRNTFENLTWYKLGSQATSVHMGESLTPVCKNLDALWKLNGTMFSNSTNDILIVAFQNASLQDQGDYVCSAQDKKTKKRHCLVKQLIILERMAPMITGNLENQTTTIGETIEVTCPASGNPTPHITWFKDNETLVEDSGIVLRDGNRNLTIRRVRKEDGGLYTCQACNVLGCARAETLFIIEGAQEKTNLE

- EC50 (read off the curve) (murine VEGFR2 [1]): ~0.3 nM
- IC50 (read off the curve) (murine VEGFR2 [2]): ~0.6 nM
B1: DC 101 (a murine monoclonal Ab that binds to murine VEGFR2) (antibody, V domains shown)
VH: EVQLVETGGGLVQPGNSLKLSCATSGFIFSTTWMNWIRQTPGKRLEWLAQIEDKSNNYFISYSESVKGRFTISRDDSKSSVYLQMNNLKEEDTAIYYCSWKYRSNYYFDYWGQGVMVTVSS
VL: DIVLTQSPALAVSLEQRATISCKTSQNVDYYGISYLHWYQQKPGQQPKLLIYEGSNLASGIPARFSGSGSGTDFTLTIDPVEADDIVTYYCQQSKDYPYTFGAGTKLELK

- Kd (rat VEGFR2): 43.1 nM
- Kd (murine VEGFR2 [3]): 79.2 nM
- Kd (human VEGFR2 [4]): 7.65 nM
B2: Mab 149 (antibody, V domains shown)
VH: EVQLLESGGGLVQPGGSLRLSCAASGFTFSWYVMGWVRQAPGKGLEWVSSIYPSGGATNYADSVKGRFTISRDNSKNTLYLQMNSLRAEDTAVYYCARGNYLDYWGQGTLVTVSS
VL: DIQMTQSPGTLSLSPGEGATLSCRASQSVSSNYFGWYQQKPGQAPRLLIYGASSRATGIPDRFSGSGSGTDFTLTISRLEPEDSAVYYCQQFDSSPLSFGGGTKVEIKR

- EC50 (read off the curve) (human VEGFR2 [5]): ~0.1 nM
- EC50 (read off the curve) [6]: ~0.3 nM
- Kd (rat VEGFR2): 13.9 nM
- Kd (murine VEGFR2 [3]): 29.4 nM
- Kd (human VEGFR2 [4]): 2.51 nM
- EC50 (read off the curve) (murine VEGFR2 [7]): ~0.1 nM
- IC50 (read off the curve) (human VEGFR2 [8]): ~0.4 nM
- IC50 (read off the curve) (murine VEGFR2 [2]): ~0.5 nM
B3: Mab 147 (antibody, V domains shown)
VH: B2 VH with S54Q, N59S, L102F
VL: B2 VL with S95L, S98T

- Kd (rat VEGFR2): 31.2 nM
B4: Mab 138 (antibody, V domains shown)
VH: B2 VH with L102F
VL: B2 VL with E17D, G18R, F34L, G35A, L47V, S54T, S64T
